# Test results as given in the supplement of paper PMC9170038.
# System: MS2 coat protein
# Test: apparent KD of MS2 coat protein; higher = weaker reporter binding
# Conditions: Eterna round: R107
# Method in brief: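 The buffer was 100 mM Tris-HCl pH 7.5 with 80 mM KCl and 4 mM MgCl2, used without or with constant ligand. In it, RNA switches transcribed on-chip from Illumina sequencing clusters were titrated with SNAP-549-labelled MS2 coat protein in twofold steps from 0.7 or 1.5 nM to 3 µM. Apparent KD for each design is the median of its normalised cluster binding-curve fits.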
# [1] = input ligand: theophylline 20 uM
# [2] = input ligand: theophylline 2 mM
# [3] = input ligand: tryptophan 2.4 mM
Sequence,apparent KD of MS2 coat protein (input ligand: arginine 13.2 mM) [nM],apparent KD of MS2 coat protein [1] [nM],apparent KD of MS2 coat protein [2] [nM],apparent KD of MS2 coat protein (input ligand: none) [nM],apparent KD of MS2 coat protein [3] [nM]
CACGAAAGAUCGGCCGCCACUAAUCGAUGUGUUCUUUCACAUGAGGAUCACCCAUGUUCUUGCGUUAGGACCGGGAUUGAGCGUG [#01 Exclusion Tryptophan B],32.1,50.1,52.4,,
GUGCCGCAUUCACAUGAGGAUCACCCAUGUCGAGGACCGGUACGGCCGCCACUCGACGUGCUUACAGGUCCUUUACGGCCCAAUA [Biedxele],30.7,71.3,36.9,,
ACAUGAGGAUCACCCAUGUGUGUAAGUCCUCGAGGACCGGUACGGCCGCCACUCGAACGAGUGUAACAUACUUGUUACAAGUAUG [SS Trp A s3],18.5,39.9,43.3,,
AGCAACUAGUCGGCCGCCACUCAUAUUACAUGAGGAUCACCCAUGUAUACAUGGUUGUUAUAUUUGAGGACCGGGACAGUUGCAU [JR_SSTryptoB_Sub018],59,69.9,75.7,,
AGAGUUAGACAAAAGUCUAGCUCACCAGAAGGAGCGUCCGAAAGGACAGGUAGGUCGCUGGUGCUUGAGGAUCACCCAAGUUCCU [ArgAS 22 #OpenEnded #AlternativeMS2],82.7,121,204,96.1,128
GACGGCUCGACGGCCGCCACUCCCUCCGACUGAAGGCACAGUGGACAUGAGGAUCACCCAUGUCCGAGGACCGGGUCGAUCCUGG [theeternabot_sameState_MS2_Trp_B_32],14.5,19.3,18.3,,
GUCGGUACGUCGGCAAAGCCGAUGUGCCAGCGAGGACCGGUACGGCCGCCACUCGUACAUGAGGAUCACCCAUGUCCGGUCCGAC [Omei Trp SS A C v4],44.7,139,169,134,155
ACAUGAGGAUCACCCAUGUAACGUCUUGAUACCAGACGAGAAGUAGUCCCUUGGCAGCAAAUACGUGAGGGUCACACAUGUGUAA [vvvmullin],13.8,34.4,,,22.1
ACAUGAGGAUCACCCAUGUUCCUCGCCGAUACCAGUGAAGAAUUACGCCCUUGGCAGCGGAAUGAGUGUUUUGGAGAUGAGGUAC [6.aB],84.4,112,,,81
GGACUAACUGGAAGGAGCGACACGCAGAAACUGCAAUUUCCUCCACACGAGGAUCACCCGUGUCAGGUAGGUCGCCAGUUAGUCG [ArgBX 29],31.3,52,57,39.1,40.9
GUACAUGAGGAUCACCCAUGUAUAGUUGAAGGAGCGACCAGAGGGUCAGGUAGGUCGCAGCACAUGGUGUAAACCCGUGUAUGCC [#1 Exclusion - Arginine A Attempt #22 (Inspired by Pi)],29.6,34.6,28.9,29.3,26.8
UCUAACAUGAGGAUCACCCAUGUACCGUCCCGAGGACCGGUACGGCCGCCACUCGUCUUGCUAAAACUGAAGUGAUCACAAGCCU [theeternabot_sameState_MS2_Trp_A_2],25.2,30.9,24.6,,
AUAACGAGUGGUGGAUAAUCCUCAUGUAAACGAGGACCGGUACGGCCGCCACUCGAUAACAUGAGGAUCACCCAUGUAAUAAUAA [|T'-M'-Trp-Ms2|_Design17],25.9,20.8,21.3,,
UGUACCUAGUCGGCCGCCACUCCAAAAGGAGAGGAUCACCCUCCUAAACGAGUCAAAGACUCGAGGAGGACCGGGACUAGGUACU [Palindromic MS2 #AlternativeMS2 #Palindrome #StaticStem],30,41.8,33.9,30.4,14
CAAUGCGGUUAGGAUACCAGCGACACACACUUCUCACAACACAUGAGGAUCACCCAUGUCCGCCCUUGGCAGCCUUGACUAAGGU [theeternabot_exclusion_MS2_Theo_B_39],30.2,51.8,,,27.2
UUAUGCAGGUCGGCCGCCACUACACACAUGAGGAUCACCCAUGUAGUUACUGGGUGAAGUGGCAGUAGGACCGGGACCUGCACAU [Brourdmod13],52,739,850,479,465
AGUAGCUGCCGAAGGAGCGCCGUGUUCCUACAUGAGGAUCACCCAUGUAGCGUUGGGUUACGGCAGGUAGGUCGCGGCAGAUAGG [#18 Same State - Arginine B],23.1,38.2,24.5,30,22.4
CUAAUUAUAUCGGCCGCCACUUACUCAUGAGGUAACAACAUGAGGAUCACCCAUGUUUGAGGAUCAAGGACCGGGAUAUAAUUAG [AstrosSSTry#24],30.5,33,34.9,,
